Experiment [1] addresses Rat EphB1-Fc ectodomain (rat) (UniProt P09759). Briefly: AlphaScreen or HTRF. On the technique in general: Bead proximity is the source of the signal in Alpha formats.
Experiment [2] has the same target. The experiment can be described thus: BLI.
Experiment [3] addresses Mouse EphrinB2-His ectodomain (mouse) (UniProt P52800). The experiment can be described thus: mass photometry.
Experiment [4] concerns the target T1, Human EphB1-His ectodomain (human, UniProt P54762 18-540).
T1 sequence: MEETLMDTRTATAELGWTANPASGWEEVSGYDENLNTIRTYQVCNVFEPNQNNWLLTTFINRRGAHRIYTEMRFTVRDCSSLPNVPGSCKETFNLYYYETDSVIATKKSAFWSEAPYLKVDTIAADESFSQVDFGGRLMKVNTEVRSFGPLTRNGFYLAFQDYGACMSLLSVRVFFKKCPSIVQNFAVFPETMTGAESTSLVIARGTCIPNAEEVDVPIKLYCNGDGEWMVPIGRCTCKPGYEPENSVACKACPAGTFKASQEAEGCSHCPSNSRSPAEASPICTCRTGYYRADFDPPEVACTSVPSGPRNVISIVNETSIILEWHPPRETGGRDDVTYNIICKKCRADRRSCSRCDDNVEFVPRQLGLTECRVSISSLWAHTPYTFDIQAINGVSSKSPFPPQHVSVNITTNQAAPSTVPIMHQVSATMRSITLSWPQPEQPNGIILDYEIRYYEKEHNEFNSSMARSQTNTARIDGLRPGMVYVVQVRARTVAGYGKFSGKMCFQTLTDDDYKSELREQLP
The experiment can be described thus: BLI. On the technique in general: Biolayer interferometry detects binding as a change in optical thickness at a sensor tip.

The target in experiment [5] is T2, Human EphB2-His ectodomain (human, UniProt P29323 19-543).
T2 sequence: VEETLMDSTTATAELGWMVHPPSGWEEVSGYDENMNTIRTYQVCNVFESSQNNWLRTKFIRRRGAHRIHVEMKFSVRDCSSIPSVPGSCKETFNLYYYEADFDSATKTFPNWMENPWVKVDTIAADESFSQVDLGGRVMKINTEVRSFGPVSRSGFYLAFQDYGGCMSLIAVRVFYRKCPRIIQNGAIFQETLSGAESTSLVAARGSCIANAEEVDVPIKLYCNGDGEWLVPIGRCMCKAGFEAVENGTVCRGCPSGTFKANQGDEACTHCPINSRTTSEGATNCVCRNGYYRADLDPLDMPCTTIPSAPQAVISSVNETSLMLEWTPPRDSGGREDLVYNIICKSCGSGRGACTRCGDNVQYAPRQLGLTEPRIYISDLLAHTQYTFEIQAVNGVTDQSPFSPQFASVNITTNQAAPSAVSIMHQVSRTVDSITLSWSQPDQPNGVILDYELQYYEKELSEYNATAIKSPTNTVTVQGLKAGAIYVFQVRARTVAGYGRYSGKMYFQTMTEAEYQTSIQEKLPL
Briefly: BLI.

The target of experiment [6] is T2, Human EphB2-His ectodomain. Briefly: BLI. The source holds these as a separate data set.
The target of experiment [7] is T3, Human EphB4-His ectodomain (human, UniProt P54760 16-539).
T3 sequence: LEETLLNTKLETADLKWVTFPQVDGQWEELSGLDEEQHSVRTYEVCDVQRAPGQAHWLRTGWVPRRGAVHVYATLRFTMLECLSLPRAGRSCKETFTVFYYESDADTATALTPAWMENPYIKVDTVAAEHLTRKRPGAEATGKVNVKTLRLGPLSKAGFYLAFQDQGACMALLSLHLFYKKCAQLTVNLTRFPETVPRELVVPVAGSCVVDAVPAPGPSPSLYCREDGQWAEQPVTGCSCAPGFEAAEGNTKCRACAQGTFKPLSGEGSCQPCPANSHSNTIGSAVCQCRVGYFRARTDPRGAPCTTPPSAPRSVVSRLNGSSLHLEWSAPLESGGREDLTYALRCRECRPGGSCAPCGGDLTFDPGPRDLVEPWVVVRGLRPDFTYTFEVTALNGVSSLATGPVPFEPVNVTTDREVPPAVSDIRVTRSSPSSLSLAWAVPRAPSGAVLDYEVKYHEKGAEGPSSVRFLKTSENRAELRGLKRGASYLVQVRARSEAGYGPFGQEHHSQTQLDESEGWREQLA
The experiment can be described thus: BLI.

Experiment [8] deals with T4, Human EphB2-His ectodomain (human), P29323.
T4 chain: T2 sequence
Briefly: mass photometry. The conditions noted are these: remark: other sources report otherwise.

Results on six molecules are retold here after paper doi:10.64898/2025.12.08.692997 (bioRxiv, 2025).

As a reminder, the IC50 is the concentration that inhibits the measured activity by half. As a reminder, the stoichiometry N is a count of units in the complex or per binding partner.

Read-outs that look alike come from different tables or passages of the source.

On to “soluble Reelin protein (from UniProt Q60841 27-3461) (natural protein)”, for which, in experiment [1], the IC50 was 50 nM.
For the molecule “Mouse EphrinB2-His ectodomain (from UniProt P52800 29-232) (domain or fragment)”, in experiment [2], the KD1 (2:1 heterologous interaction model) is under 1 pM and the KD2 (dimer formation, 2:1 model) stood at 39.7 nM. In experiment [3], this molecule displayed a stoichiometry N of 2.

B1: Human EphrinB3-Fc ectodomain (Fc fusion)
chain: LSLEPVYWNSANKRFQAEGGYVLYPQIGDRLDLLCPRARPPGPHSSPNYEFYKLYLVGGAQGRRCEAPPAPNLLLTCDRPDLDLRFTIKFQEYSPNLWGHEFRSHHDYYIIATSDGTREGLESLQGGVCLTRGMKVLLRVGQSPRGGAVPRKPVSEMPMERDRGAAHSLEPGKENLPGDPTSNATSRGAEGPLPPPS
As to B1, the binding result in experiment [4] and in experiment [5] was “binds” in each case.

B2: Human EphrinB1-Fc ectodomain (Fc fusion)
chain: LAKNLEPVSWSSLNPKFLSGKGLVIYPKIGDKLDIICPRAEAGRPYEYYKLYLVRPEQAAACSTVLDPNVLVTCNRPEQEIRFTIKFQEFSPNYMGLEFKKHHDYYITSTSNGSLEGLENREGGVCRTRTMKIIMKVGQDPNAVTPEQLTTSRPSKEADNTVKMATQAPGSRGSLGDSDGKHETVNQEEKSGPGASGGSSGDPDGFFNS
As for B2, the binding result in experiment [4] and in experiment [5] was “binds” in each case.

B3: Human EphrinB2-Fc ectodomain (Fc fusion)
chain: IVLEPIYWNSSNSKFLPGQGLVLYPQIGDKLDIICPKVDSKTVGQYEYYKVYMVDKDQADRCTIKKENTPLLNCAKPDQDIKFTIKFQEFSPNLWGLEFQKNKDYYIISTSNGSLEGLDNQEGGVCQTRAMKILMKVGQDASSAGSTRNKDPTRRPELEAGTNGRSSTTSPFVKPNPGSSTDGNSAGHSGNNILGSEVALFA
Regarding B3, the binding result in experiment [6], in experiment [4] and in experiment [7] was “binds” in each case.

B4: Human EphB2-His ectodomain, P29323 19-543 (domain or fragment)
chain: T2 sequence
With B4, the stoichiometry N in experiment [8] was determined as 2.
